Measured values taken from US20250215091A1, “Anti-GAL3 Antibodies and Compositions” (Les Laboratoires Servier, priority 2022, published 2025).
Substitutions are numbered along the chain they refer to.

B1: anti-Gal3 scFv G03 (scFv, V domains shown, not shown: small tags and cut ends)
VH: EVQLVESGGSLVKPGGSLRLSCAASGFTFSNYAMNWVRQAPGKGLEWISSIYGSSRYIYYADFVKGRFTISRDNAKNSLYLQMNSLRAEDTAVYYCVRSYNGGMDVWGRGTLVTVSS
VL: QSVLTQPASVSGSPGQSITISCAGTSSDVGGYYNVAWYQQHPGKAPKLMIYYDSYRPSGVSNRFSGSKSGNTASLTISGLQAEDEADYYCSSSTGYSTRVFGGGTKLEIK
notes: Periplasmic extract from E. coli; also called G03 (scFv)
B2: anti-Gal3 scFv H10 (scFv, V domains shown, not shown: small tags and cut ends)
VH: EVQLVESGGSLVKPGGSLRLSCAASGFTFSNYYMNWVRQAPGKGLEWISYINGASRDISYADFVKGRFTISRDNAKNSLYLQMNSLRAEDTAVYYCVRSSYGYSNYGSGMDVWGRGTLVTVSS
VL: B1 VL with Y32S, Y52N, S54A, Y55N, S93N, G95A, Y96D
notes: Periplasmic extract from E. coli; also called H10 (scFv)
B3: anti-Gal3 scFv B12 (scFv, V domains shown, not shown: small tags and cut ends)
VH: EVQLVESGGSLVKPGGSLRLSCAASGFTFSNDDMNWVRQAPGKGLEWISSIDGSSRSIYYADFVKGRFTISRDNAKNSLYLQMNSLRAEDTAVYYCVRSSGYSGGGMDVWGRGTLVTVSS
VL: B1 VL with Y32S, Y52S, S93Y, G95S, Y96N, T98A
notes: Periplasmic extract from E. coli; also called B12 (scFv)
B4: anti-Gal3 scFv E01 (scFv, V domains shown, not shown: small tags and cut ends)
VH: EVQLVESGGSLVKPGGSLRLSCAASGFTFSNNYMNWVRQAPGKGLEWISNINGASRNIAYADFVKGRFTISRDNAKNSLYLQMNSLRAEDTAVYYCVRSSDYDGGMDVWGRGTLVTVSS
VL: B1 VL with Y32N, Y33S, N34Y, A36S, G95Y, Y96G
notes: Periplasmic extract from E. coli; also called E01 (scFv)
B5: anti-Gal3 variant antibody D06-G2 (antibody, V domains shown)
VH: B1 VH with S10G, A33N, I48V, F63S, Y100G, N101Y
VL: B1 VL with V3A, A23T, Y33N, N34G, A36S, S93G, G95D, G103Q
notes: Variant of D06 with framework mutations to germline; captured by anti-human Fc in SPR
B6: anti-Gal3 scFv D11 (scFv, V domains shown, not shown: small tags and cut ends)
VH: B1 VH with A33N, Y100S, N101Y
VL: B1 VL with Y32S, S93Y
notes: Periplasmic extract from E. coli; also called D11 (scFv)
B7: anti-Gal3 variant antibody E07-G2 (antibody, V domains shown)
VH: B1 VH with S10G, A33N, I48V, S50N, F63S, N101Y
VL: QSALTQPRSVSGSPGQSVTISCTGTSSDVGGYYSVSWYQQHPGKAPKLMIYYDSNRPSGVPDRFSGSKSGNTASLTISGLQAEDEADYYCSSYTGYSTRVFGQGTKLEIK
notes: Variant of E07 with framework mutations to germline; captured by anti-human Fc in SPR
B8: anti-Gal3 scFv E02 (scFv, V domains shown, not shown: small tags and cut ends)
VH: EVQLVESGGSLVKPGGSLRLSCAASGFTFSNYAMNWVRQAPGKGLEWISSIYGSSRSISYADFVKGRFTISRDNAKNSLYLQMNSLRAEDTAVYYCVRSSYNYYYGNGMDVWGRGTLVTVSS
VL: B1 VL with Y33G, N34G, A36S, G95S
notes: Periplasmic extract from E. coli; also called E02 (scFv)
B9: anti-Gal3 variant antibody E07-G1 (antibody, V domains shown)
VH: B1 VH with S10G, A33N, S50N, F63S, N101Y
VL: B7 VL
notes: as for B7
B10: anti-Gal3 antibody B12 (antibody, V domains shown)
VH: B3 VH
VL: B1 VL with Y32S, Y52S, S93Y, G95S, Y96N, T98A
B11: anti-Gal3 antibody E12 (antibody, V domains shown)
VH: B1 VH with Y57S, Y100N, G102A
VL: B1 VL with N34D, A36S, S93Y, G95S
B12: anti-Gal3 variant antibody D06-G1 (antibody, V domains shown)
VH: B1 VH with S10G, A33N, F63S, Y100G, N101Y
VL: B1 VL with V3A, A23T, Y33N, N34G, A36S, S93G, G95D, G103Q
notes: as for B5
B13: anti-Gal3 scFv H07 (scFv, V domains shown, not shown: small tags and cut ends)
VH: B1 VH with A33N, S50N, Y52D, N101Y
VL: B1 VL
notes: Periplasmic extract from E. coli; also called H07 (scFv)
B14: anti-Gal3 scFv E12 (scFv, V domains shown, not shown: small tags and cut ends)
VH: B1 VH with Y57S, Y100N, G102A
VL: B1 VL with N34D, A36S, S93Y, G95S
notes: Periplasmic extract from E. coli; also called E12 (scFv)
B15: anti-Gal3 scFv E07 (scFv, V domains shown, not shown: small tags and cut ends)
VH: B1 VH with A33N, S50N, N101Y
VL: B1 VL with N34S, A36S, Y55N, S93Y
notes: Periplasmic extract from E. coli; also called E07 (scFv)
B16: anti-Gal3 scFv D06 (scFv, V domains shown, not shown: small tags and cut ends)
VH: B1 VH with A33N, Y100G, N101Y
VL: B1 VL with Y33N, N34G, A36S, S93G, G95D
notes: Periplasmic extract from E. coli HB2151 (pHEN phagemid); also called D06 (scFv)
B17: anti-Gal3 variant antibody D11-G2 (antibody, V domains shown)
VH: B1 VH with S10G, A33N, I48V, F63S, Y100S, N101Y
VL: B1 VL with V3A, A23T, Y32S, S93Y
notes: Variant of D11 with framework mutations to germline; captured by anti-human Fc in SPR
B18: anti-Gal3 variant antibody D11-G1 (antibody, V domains shown)
VH: B1 VH with S10G, A33N, F63S, Y100S, N101Y
VL: B1 VL with V3A, A23T, Y32S, S93Y
notes: as for B17

Experiments:
[1] = target: T1, human full-length Galectin-1 (human, UniProt P09382 2-135); assay: ELISA on His-tag-immobilised antigen (3 µg/mL), periplasmic extract with scFv, anti-scFvTag.HRP, OD 450 nm
T1 construct: full-length; Histidine-tagged; also called Hu-Gall; Gall
T1 sequence (P09382 2-135 limits assumed): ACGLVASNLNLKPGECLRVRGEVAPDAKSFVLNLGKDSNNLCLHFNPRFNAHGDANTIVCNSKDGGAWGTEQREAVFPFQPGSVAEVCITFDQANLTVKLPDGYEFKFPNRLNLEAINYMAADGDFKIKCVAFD
Procedure: (§1) Hu-Gal3-FL, Hu-Gal3-CRD, m-Gal3-FL, Hu-Gall and Hu-Gal7 were immobilized at 3 μg/mL final concentration through their histidine tag on functionalized microplates following internal process. Periplasmic extracts containing scFvs were added into the wells and detected with an anti-scFvTag.HRP (horseradish peroxidase) antibody. Rabbit antibodies directed against Gal3 (ab53082-abcam reference), Gall (ab25138-abcam reference), and Gal7 (ab108623-abcam reference) were used at 5 μg/mL as antigen-coating positive controls and detected with an anti-rabbit.HRP secondary antibody (7074S-Cell Signaling reference).

[2] = target: T2, human full-length Galectin-7 (human, UniProt P47929 1-136); assay: as above
T2 construct: full-length; Histidine-tagged; also called Hu-Gal7; Gal7
T2 sequence (P47929 whole entry): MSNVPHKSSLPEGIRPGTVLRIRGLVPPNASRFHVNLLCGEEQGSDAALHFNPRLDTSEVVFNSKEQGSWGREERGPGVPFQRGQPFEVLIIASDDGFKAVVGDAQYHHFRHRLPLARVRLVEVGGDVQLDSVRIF
Procedure: as §1

[3] = target: T3, full length human Galectin-3 (human, UniProt P17931 2-250); assay: SPR Biacore T-200, antibody captured by anti-human Fc, Gal3 in solution
T3 construct: Printed as 'full length'; recombinant, immobilized through a histidine tag; also called hu-Gal3-FL; Hu-Gal3-FL
T3 sequence (P17931 2-250 limits assumed): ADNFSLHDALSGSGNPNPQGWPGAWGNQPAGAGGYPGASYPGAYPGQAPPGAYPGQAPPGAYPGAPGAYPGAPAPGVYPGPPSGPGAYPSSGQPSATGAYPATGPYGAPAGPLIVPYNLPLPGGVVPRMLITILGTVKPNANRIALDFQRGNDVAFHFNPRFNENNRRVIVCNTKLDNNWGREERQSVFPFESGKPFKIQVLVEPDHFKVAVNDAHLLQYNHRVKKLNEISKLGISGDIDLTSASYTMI
Procedure: (§2) The CM5 sensor surface was first immobilized with an anti-human Fc mAb using a standard protocol. The entire sensor surface was first activated by injecting a 1:1 (v/v) mixture of 400 mM EDC and 100 mM NHS at a flow rate of 10 μL/minute for 7 minutes. Monoclonal anti-human Fc antibody (Millipore AP113), 25 μg/mL in Na acetate pH5, 360 s were flowed at 10 μL/minute to reach 10000 RU on both flow cells followed by the injection of 1 M ethanolamine, pH8.5 for 7 minutes at a flow rate of 10 μL/minute. During the entire immobilization procedure, HBS-P was used as the running buffer.
(§3) Antibody samples were prepared at 5 μg/ml and were injected for 30 seconds at 10 μL/minute. In general, 400 to 680 resonance units of antibodies were captured on the chip.

[4] = target: T4, full length mouse Galectin-3 (mouse, UniProt P16110 2-264); assay: as above
T4 construct: Printed as 'full length'; recombinant, immobilized through a histidine tag; also called m-Gal3-FL; murine Gal3
T4 sequence (P16110 2-264 limits assumed): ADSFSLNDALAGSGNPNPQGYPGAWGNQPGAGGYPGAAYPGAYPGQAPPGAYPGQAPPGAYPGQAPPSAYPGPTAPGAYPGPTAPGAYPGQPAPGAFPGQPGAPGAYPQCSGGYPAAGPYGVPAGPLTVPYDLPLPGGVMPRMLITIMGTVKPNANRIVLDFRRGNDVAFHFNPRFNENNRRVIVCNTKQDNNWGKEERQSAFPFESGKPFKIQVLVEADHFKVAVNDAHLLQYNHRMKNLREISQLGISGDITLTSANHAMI
Procedure: as §2, §3

[5] = target: T1, human full-length Galectin-1; assay: ELISA on immobilised antigen (3 µg/mL), purified IgG at 15-20 µg/mL, anti-Fab.HRP, OD 450 nm
Procedure: (§4) IgG specificity to Gal3 was tested by checking the absence of binding on human Gall and Gal7 by ELISA.
(§5) Hu-Gall and Hu-Gal7 were immobilized at 3 μg/mL. Purified IgGs were added into the wells (15-20 μg/mL final concentration) and detected with an anti-Fab.HRP antibody. Rabbit antibodies directed against Gall (Abcam ab25138 reference) and Gal7 (Abcam ab108623 reference) were used at 5 μg/mL as antigen-coating positive controls and detected with an anti-rabbit.HRP secondary antibody (7074S-Cell Signaling reference).

[6] = target: T2, human full-length Galectin-7; assay: as above
Procedure: as §4, §5

Row | Binder | binding result [1] | binding result [2] | Kd [3] [nM] | further results
1 | B1 | no binding | no binding | – | –
2 | B2 | no binding | no binding | – | –
3 | B3 | no binding | no binding | – | –
4 | B4 | no binding | no binding | – | –
5 | B5 | – | – | 6.8 | –
6 | B6 | no binding | no binding | – | –
7 | B7 | – | – | 15 | –
8 | B8 | no binding | no binding | – | –
9 | B9 | – | – | 12 | –
10 | B10 | – | – | 8.8 | Kd [4]: 3.47 nM; binding result [5]: no binding (tested: 15-20 µg/mL); binding result [6]: no binding (tested: 15-20 µg/mL)
11 | B11 | – | – | 6.64 | Kd [4]: 7.7 nM; binding result [5]: no binding (tested: 15-20 µg/mL); binding result [6]: no binding (tested: 15-20 µg/mL)
12 | B12 | – | – | 9.6 | –
13 | B13 | no binding | no binding | – | –
14 | B14 | no binding | no binding | – | –
15 | B15 | no binding | no binding | – | –
16 | B16 | no binding | no binding | – | –
17 | B17 | – | – | 18 | –
18 | B18 | – | – | 15 | –
